{"source": "the domain aggregation screens of Martell et al. (2025)", "data": [{"assay": "soluble fraction after stress (log2 fold change); higher = more stays soluble; pooled small domains, quantitative proteomics", "conditions": "stress: 75 degC", "values": [{"sequence": "HMERLTVVPELLKRSLSEAQPLVTSARLRLEVSGGAPEDTSRAIVVGQKPPPGTRVQVGTTVIVTVQIQRP", "soluble fraction (log2)": -0.534}, {"sequence": "HMERPYNGKQMEYHEGGVEKKETLFVEGGLSRVIQWDESGQKRSEVNISPTGVRREQYWDSSGKAIAKPS", "soluble fraction (log2)": 0.14}, {"sequence": "HMERQAEAWTNRASALISLGRDEEALEAADRAIELDPRLSKAWIDRSTALSNLGRNDEANEAIQMAMFL", "soluble fraction (log2)": -0.12}, {"sequence": "HMERQILFTKEDLIEFGLSGGTDSRKRRDVLGHILGIGYSNSKQFLNRLNNFGVTREEFLSAIERIG", "soluble fraction (log2)": -0.816}, {"sequence": "HMERTVEVVDINDVFSQFLRLYSRERAAGLLSVFKRVEHGLSWQGNPVLLERILSNVFENAIKYAA", "soluble fraction (log2)": 0.149}, {"sequence": "HMERVIYLLNGREVPAAEIRAAEPEALTVDRFYSSENLPAEYRDRNPELVVAFTAEEPLRHY", "soluble fraction (log2)": 0.512}, {"sequence": "HMERVNILEKATKDIPNVEVKAFEGLSVNFARENHAQVIVRGLRAVTDFEYELQMAQTNRVLAPDVDTVF", "soluble fraction (log2)": -0.0564}, {"sequence": "HMERYSVQVGSFRNMRYAERLKQELQGEDFPAYIEKSGEFNRVRVGKGLTLEEATQLEQVLRKSGYQTVIV", "soluble fraction (log2)": -0.705}, {"sequence": "HMESIGANIRRLRKERNMSQDELARKAFTNRSNINRYESGKMVPSADTTEKIEEALGVPAGTLAQ", "soluble fraction (log2)": -0.214}, {"sequence": "HMESKDIRYVQLQTVSPEEVLQALALIMPRSDVYVEPTGKLVVLHGSKETLDRAEELILALDNAV", "soluble fraction (log2)": -0.116}, {"sequence": "HMESKITTAEAAAILNASPQFVRVAMQRGILNIGIAMQMPNSNKWTYNISPKLLGEYSGKNIEYELERLR", "soluble fraction (log2)": -1.65}, {"sequence": "HMESRTQVYDFYKDLFREKRRPLRAEEMLSALKSQRGIVGVNQYQIIEQHGIVRLSGSGRSALYWDTDLGS", "soluble fraction (log2)": -2.69}, {"sequence": "HMESSREVSFSEFMKQIDSGRVSSVKLDGETIYVRNSDGTSYKVIQPLGTDLIGVLRKSDIDVQAIKQ", "soluble fraction (log2)": 0.107}, {"sequence": "HMESYNIVEQVLTKKILSKGNTLAKLSNEFDGLVMLVIRGDEFIIPNGETLLFEKDILVINNGP", "soluble fraction (log2)": -2.68}, {"sequence": "HMESYTGLAVTEDDDGWSNVRSGNSTSYSILFKIYAGEKFNILSNDGKWSYIDFNGRKGYIHNSIIRKY", "soluble fraction (log2)": -3.82}, {"sequence": "HMETAADLLAAAKENPARFGILASEGRFGLGYMNDDLLDPDNLVAISREEADDLRGLGVYFHNLD", "soluble fraction (log2)": 0.293}, {"sequence": "HMETALYVEDLDRAVRFYESVMGLNTMSRGVRLVALDAGEGTVLLLFLRGATTSGASFEGGWIPPH", "soluble fraction (log2)": 0.05}, {"sequence": "HMETDNEKVRTAFQNGLAAYREQDWDRAEAAFGAVLAEMPEDRPSLVYLERIAHLRKKAPPGAWDGVWI", "soluble fraction (log2)": -0.335}, {"sequence": "HMETENLSPREREILEYIVKGYSYKMIAADLNIATETVRSHIKKIYKKLQVNSATEAVYKYSN", "soluble fraction (log2)": -1.51}, {"sequence": "HMETEQVEMIRVVGMHVDEAKKALLDLGLSPEIKYEESSSYDAGTVLRASVQDGLMIDKGTNIVLTVAEA", "soluble fraction (log2)": 0.293}, {"sequence": "HMETFEKIKELAKKRGKALGQVEEDLGYGRNTLYKIKNSTPNAERIAEIANYFNVSTDYLLGRTDNPTIAK", "soluble fraction (log2)": 0.108}, {"sequence": "HMETFNMTQKEITRLRVINQAIDKVITIREAAELLGLSERQVIRLKGGVEKFGPAFIIHKNRGRKP", "soluble fraction (log2)": -1.57}, {"sequence": "HMETGLSNYEFKRIREQAEALLSDGQVRRINDLVDSIKNENAEKVIRVIRFLIDTEELILEDDRVSAKKS", "soluble fraction (log2)": -0.615}, {"sequence": "HMETIVGIDPDSKKKIVLKKGIKGRPDYLSFNKKNYSLPSELKEKNVSLEQALEIINDKKSNKKKIK", "soluble fraction (log2)": 0.369}, {"sequence": "HMETLSKVGSTGSEVRQIQTKLKNWGYFSDKVDGIYGEKTRAAVVWFQKKNGLTADGIAGPATLKAMGIYT", "soluble fraction (log2)": -0.705}, {"sequence": "HMETLSVRERMTSIISLLNKHEDIEFSKLFNISEGRLGVVVTFLALLELVKESLVDVIQNQPMSKLYIGKK", "soluble fraction (log2)": -0.278}, {"sequence": "HMETLTPQEHKVLLLAVKGRTNGEIASELGIAQNTVKNHLAHIYAKMGVGNRTELASEYLRRIH", "soluble fraction (log2)": -0.203}, {"sequence": "HMETTEELISKTVPISYADMAALTGILDGVKSARGDIQVDDRTSTIIIHDIQSSIDEMMRLIKILD", "soluble fraction (log2)": -1.04}, {"sequence": "HMETTMVEIKAEFTIRNRLDIPAMMEKAGYKDRGEFLSVLEKITGNYNWDRDVKKGDTFMVPSKLA", "soluble fraction (log2)": -1.75}, {"sequence": "HMETVPMIDLRGMTQEQAEKAIVGLGLTVGTVDHSSSDMPAGQVWFQSVEPKDEVAPGTKVNIIISTGS", "soluble fraction (log2)": 0.0577}, {"sequence": "HMETYNLDVGDSAVLQYQNVSRISVGNPDVLDAIPLDKSQILLTGKATGGAALIVWDSKGMHMEKVMVHPA", "soluble fraction (log2)": -0.428}, {"sequence": "HMETYTVSSKDGYANVRNEATVNSDLIAELKNGTLVTKFKEKGEWYYIEFEREDGTPFDYGYIHKSQLK", "soluble fraction (log2)": -0.00382}, {"sequence": "HMEVALEVPELRGLSMKQATNTLMASGFEVQKVGSGTIYAQFPLPGERLRTGYAVTIRGKTRDLG", "soluble fraction (log2)": -0.345}, {"sequence": "HMEVAPEKVLEALNELPEIYKIVLNLYAVENMSHKEIAKKLGISLGSSKSRLSRGRVMLNTLLNR", "soluble fraction (log2)": -1.3}, {"sequence": "HMEVDWLEVEKVIVSSSYSWMENSPKVKLLQEYIGVTADGIYGLGTWGAHRTHAVDLGFINLSYPIP", "soluble fraction (log2)": -0.129}, {"sequence": "HMEVEADEFQQLLRSGEYVQALDRARANQDIGLRQQQIVQIARHQAASGIQAGAMGSLASLYQF", "soluble fraction (log2)": -0.0286}, {"sequence": "HMEVHLMPGTVLLREYESNEYRVTVTPEGFYDLNGKVFKSLSAVARHITGVNWSGPRFFGVEP", "soluble fraction (log2)": -2.81}, {"sequence": "HMEVLSYYGSRGQEVVNIQTKLKQWGYYKGNIDGIFGNLTYQAVREFQRKNGLKVDGIVGPETLAALGLPT", "soluble fraction (log2)": -2.64}, {"sequence": "HMEVPQVETEKVEAKLKEAEVLLVKVTDSSLKANATETLAGLRNNLTLQTMDNNGIMAEAEKLLALLRES", "soluble fraction (log2)": 0.0802}, {"sequence": "HMEVPTGNHIRRWRKSLDITQVKLSSLSGVAQSIIAKIENETVDPRVSTLRKLVEALSRFENP", "soluble fraction (log2)": -1.89}, {"sequence": "HMEVQVGKQVRAFRETLGMTVQQFAERTGFSAALLAQIENRMVSPSLGTLVKIANTFGTTVSSFIG", "soluble fraction (log2)": -0.0249}, {"sequence": "HMEVSTDADFEAVGIRAELIPILQKLGFTTVAQLKEVKATKLFNDIPGMRKKLKLDAVQNPTLQEIEGWLK", "soluble fraction (log2)": -0.0412}, {"sequence": "HMEVTLEEKLSYVEEYAKVHSHFSFRDLLKKQASKTQIVVTFLAILELMKTGKIQITQEHIFDDIVITAK", "soluble fraction (log2)": 0.0631}, {"sequence": "HMEVTYQETLRVLYNAIDKLPPQTKEIILIGLDGKDNNEIAATLNISVNTVKTLKKNAYKTLRELLVD", "soluble fraction (log2)": 0.0283}, {"sequence": "HMEWNPEKQHLLENYITNYSRQLNDTGLFYKNLDWNYIFNLVGVDDQEFLMLKIDEIYDESINVY", "soluble fraction (log2)": -1.74}, {"sequence": "HMEWNREQLEQIVLQHIRKHGFITRATYTELTGRLKNSALADLKSFAAEGIIKRVGRGNQMHFIVPL", "soluble fraction (log2)": -2.35}, {"sequence": "HMEWTDHLAEELRSLAVEGEHLEIIANKLGISPGSARAKLVNLNIYNDYQLAHIERLEADTLQAK", "soluble fraction (log2)": -0.349}, {"sequence": "HMEYFDDEELDRYKGRTSDSFTDDEAEEFREVMMTMHPEEVKAWNRSLILRDVAMPDQIKDDYIMLAG", "soluble fraction (log2)": -0.141}, {"sequence": "HMEYKYNPADYPYPLNEDIEKVYSAYREKSIGKLEAAVQNLYYTLKQARRDNILSDVKVNEMQQYFLALRN", "soluble fraction (log2)": -0.857}, {"sequence": "HMEYNLTLEELNRDLYIRGEIWNVGDVVKTTDGDEGTIIRKGTNYVVFEDLRRVWLHNLEEVK", "soluble fraction (log2)": -1.51}, {"sequence": "HMEYREFEAMTIRAIATLPPTQGHVIMLSRFEGLDNKEIALRLNLSLQTVKNTLTQGLKELKNKMRKLP", "soluble fraction (log2)": -2.02}, {"sequence": "HMEYSAAYDRELESIFNLTERGKWEEAEAEVGLLLQQYPEDKTLLRISEWVATQKTILREQAIEDRIRS", "soluble fraction (log2)": -0.0776}, {"sequence": "HMEYSYKLIDLLVDRFSEEGVDPEEAREYINLFHRFSQGLDPDKRDITKYSWDELYRTVNDKKDS", "soluble fraction (log2)": 0.664}, {"sequence": "HMEYTVNHYPEKHRFEVVEDGLTAYVEYRLRGDALDIIHTIVPKNLEGRGIAATLVETAYKYAKEQ", "soluble fraction (log2)": -1.27}, {"sequence": "HMFAAIFADDSGFTTRSKRFGPYVEEIAADWQAVKQLSDEDAKQALVPLVKKIELALSTLQQFVSSV", "soluble fraction (log2)": -0.166}, {"sequence": "HMFAATGTVNTEGSSLRLRAEASTSSSVLKQLSHGTQVDVLSGLVDGWYQVSYKGTTGYVSGEYLTVTE", "soluble fraction (log2)": -0.704}, {"sequence": "HMFADLNPDENYGQVYIRTNTIDNLYQTLLDNKTRIHPNGLLELKPWGQKEFSILDPDKNLLTFGES", "soluble fraction (log2)": -0.00771}, {"sequence": "HMFAERLKELRKMRRFSQHALAERLGISQQAVGKWETGKSTPDPATLREIADIFEVSVDLLLGR", "soluble fraction (log2)": -1.17}, {"sequence": "HMFDDEELDRFAGVPADAYLPADEDEFREVFYTMRPGEVVEWVRSLELRHIEIPNGIKDEIFMMIR", "soluble fraction (log2)": -3.97}, {"sequence": "HMFDEDKLIISIGSKVRIIREPYFGTIGKVVELPPELVKMDTEAMLRVAIIKLDDGEKVTIPRANLEVILS", "soluble fraction (log2)": -2.43}, {"sequence": "HMFDEVKDAARRLAALLDQAGGTLTLNDKSAPEEVAALTGMSKKVFKRALGHLMSRSEVVVADGRITKKD", "soluble fraction (log2)": -0.709}, {"sequence": "HMFDGRSDAEKTLDLIKTAIDNILKGGAIQEYKIGTRTAKKYDMAELQVLKGEYAAMVAREKQAETMA", "soluble fraction (log2)": -0.412}, {"sequence": "HMFDGVAAGKPAILDALEDAGGFLPLNSKSSVEEIQASFSFSKRVFKQLIGMLYKERKIVITDDGIRLAD", "soluble fraction (log2)": -0.279}, {"sequence": "HMFDGYQWLKRDIIRGVYQPEEKLRMSLLTNRYGLGVGPLREALSQLVAEHLVTVVSQKGYRVAPM", "soluble fraction (log2)": -0.387}, {"sequence": "HMFDKNKPVVVEGENAEVALKKVSKYFNVPTEKLDYTLLGQKSAGLLGIGSKVYQFKVWLKREIP", "soluble fraction (log2)": -0.249}, {"sequence": "HMFDLENIRLTLARRLNVAAHLRPKYVAGFTLLLKQNFPEQNAEDLLNRLEHNQWLKVNQREIEYSPRLLM", "soluble fraction (log2)": -1.63}, {"sequence": "HMFDPAKQMQRIRKYAGMNRKEFSEWLNIPYRTMTDWELGNRTMPVYLLELIVYKVNHEIANA", "soluble fraction (log2)": 0.588}, {"sequence": "HMFDREKFIKLGQEFARVAFENVNKRATDRALKTAAKHYGLPSADELLARLGSSEIAARDVVAELYPNL", "soluble fraction (log2)": -0.856}, {"sequence": "HMFDSYDIYDEAGNTVNTVKGKLSWGHLLEIYDRFDNHIGTVQERVLTFLPKFLMYINGQEIGEIR", "soluble fraction (log2)": -0.164}, {"sequence": "HMFDVNSMIAANIVAILKKQNRKQIDLAGALQTNKQTISKMLNGSRMINAIELKRIAEFLGVKMEELTKL", "soluble fraction (log2)": -2.23}]}]}
